Experiment [1] has as its target recombinant cynomolgus monkey CD3ε/δ heterodimer (cynomolgus monkey) (UniProt Q95LI5). Put plainly: ELISA, coated CD3ε/δ.
For experiment [2], the target named is recombinant human CD3ε/δ heterodimer (human) (UniProt P07766). Put plainly: ELISA, coated CD3ε/δ.
Chain of recombinant human CD3ε/δ heterodimer (human) (P07766 23-126, stated change not applied, chain 1 of 2): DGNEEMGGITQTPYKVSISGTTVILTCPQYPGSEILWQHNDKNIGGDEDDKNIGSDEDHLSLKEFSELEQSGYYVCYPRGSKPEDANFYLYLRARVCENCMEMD
Chain of recombinant human CD3ε/δ heterodimer (human) (P04234 22-105, stated change not applied, chain 2 of 2, further chain): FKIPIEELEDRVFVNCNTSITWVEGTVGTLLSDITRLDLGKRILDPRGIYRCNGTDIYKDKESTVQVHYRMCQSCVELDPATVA

Chain of recombinant cynomolgus monkey CD3ε/δ heterodimer (cynomolgus monkey) (Q95LI5 22-117, stated change not applied, chain 1 of 2): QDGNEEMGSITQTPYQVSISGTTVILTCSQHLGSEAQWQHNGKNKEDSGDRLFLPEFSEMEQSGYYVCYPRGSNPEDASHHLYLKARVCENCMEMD
Chain of recombinant cynomolgus monkey CD3ε/δ heterodimer (cynomolgus monkey) (Q95LI8 22-105, stated change not applied, chain 2 of 2, further chain): as the sequence (P04234 22-105, stated change not applied, chain 2 of 2, further chain) above, with I5V, N15K, I20V, S32T, D33N, I34N, T64A, S74N, V83L counted along it

B1: G14 (antibody, human IgG1, lambda, L234A L235A, V domains shown)
VH: EVQLVESGGGLVQPGGSLKLSCAASGFTFNTYAMNWVRQASGKGLEWVARIRSKYNNYATYYADSVKDRFTISRDDSQSTAYLQMNSLKTEDTAVYYCVRHGNFGNSYVSWFAYWGQGTLVTVSS
VL: QAVVTQEPSLTVSPGGTVTLTCRSSTGAVTTSNYANWVQQKPGQAPRGLIYGTNKRAPWTPARFSGSLLGDKAALTLSGAQPEDEAEYYCALWYSNLWVFGGGTKLTVLG
As to B1, the Absorbance (450 nm) in experiment [1] is 0.099; in experiment [2] it was 0.105.

B2: H07 (antibody, human IgG1, lambda, L234A L235A, V domains shown)
VH: EVQLVESGGGLVQPGGSLKLSCAASGFTFNTYAMNWVRQASGKGLEWVARIRSKYNNYATYYADSVKDRFTISRDDSQSTLYLQMNSLKTEDTAVYYCVRHGNFGNSYVSWFAYWGQGTLVTVSS
VL: QAVVTQEPSLTVSPGGTVTLTCRSSTGAVTTSNYANWFQQKPGQAPRGLIGGTNKRAPWTPARFSGSLLGGKAALTLSGAQPEDEAEYYCALWYSNLWVFGGGTKLTVLG
On to B2, for which the results for the Absorbance (450 nm) in experiment [1] and in experiment [2] were 0.09 and 0.11, respectively.

B3: H13 (antibody, human IgG1, lambda, L234A L235A, V domains shown)
VH: EVQLVESGGGLVQPGGSLKLSCAASGFTFNTYAMNWVRQASGKGLEWVARIRSKYNNYATYYADSVKDRFTISRDDSQSTLYLQMNSLKTEDTAVYYCVRHGNFGNSYVSWFAYWGQGTLVTVSS
VL: QAVVTQEPSLTVSPGGTVTLTCRSSTGAVTTSNYANWVQQKPGQAPRGLIYGTNKRAPWTPARFSGSLLGGKAALTLSGAQPEDEAEYYCALWYSNLWVFGGGTKLTVLG
Regarding B3, the Absorbance (450 nm) in experiment [1] amounted to 0.196; in experiment [2], 0.175.

B4: H02 (antibody, human IgG1, lambda, L234A L235A, V domains shown)
VH: EVQLVESGGGLVQPGGSLKLSCAASGFTFNTYAMNWVRQASGKGLEWVARIRSKYNNYATYYADSVKDRFTISRDDSQSTLYLQMNSLKTEDTAVYYCVRHGNFGNSYVSWFAYWGQGTLVTVSS
VL: QAVVTQEPSLTVSPGGTVTLTCRSSTGAVTTSNYANWFQQKPGQAPRTLIYGTNKRAPWTPARFSGSLLGDKAALTLSGAQPEDEAEYYCALWYSNLWVFGGGTKLTVLG
As to B4, the Absorbance (450 nm) in experiment [1] came to 0.08; in experiment [2] it was 0.111.

B5: H08 (antibody, human IgG1, lambda, L234A L235A, V domains shown)
VH: EVQLVESGGGLVQPGGSLKLSCAASGFTFNTYAMNWVRQASGKGLEWVARIRSKYNNYATYYADSVKDRFTISRDDSQSTLYLQMNSLKTEDTAVYYCVRHGNFGNSYVSWFAYWGQGTLVTVSS
VL: QAVVTQEPSLTVSPGGTVTLTCRSSTGAVTTSNYANWFQQKPGQAPRGLIGGTNKRAPWTPARFSGSLLGDKAALTLSGAQPEDEAEYYCALWYSNLWVFGGGTKLTVLG
Take B5: the Absorbance (450 nm) worked out at 0.136 in experiment [1] and 0.118 in experiment [2].

B6: H01 (antibody, human IgG1, lambda, L234A L235A, V domains shown)
VH: EVQLVESGGGLVQPGGSLKLSCAASGFTFNTYAMNWVRQASGKGLEWVARIRSKYNNYATYYADSVKDRFTISRDDSQSTLYLQMNSLKTEDTAVYYCVRHGNFGNSYVSWFAYWGQGTLVTVSS
VL: QAVVTQEPSLTVSPGGTVTLTCRSSTGAVTTSNYANWFQQKPGQAPRTLIYGTNKRAPWTPARFSGSLLGGKAALTLSGAQPEDEAEYYCALWYSNLWVFGGGTKLTVLG
Take B6: the Absorbance (450 nm) in experiment [1] was 0.154; in experiment [2], 0.121.

B7: A14 (antibody, human IgG1, lambda, L234A L235A, V domains shown)
VH: EVQLVESGGGLVQPGGSLKLSCAASGFTFNTYAMNWVRQASGKGLEWVGRIRSKYNNYATYYADSVKDRFTISRDDSKNTAYLQMNSLKTEDTAVYYCVRHGNFGNSYVSWFAYWGQGTLVTVSS
VL: QAVVTQEPSLTVSPGGTVTLTCRSSTGAVTTSNYANWVQQKPGQAPRGLIYGTNKRAPWTPARFSGSLLGDKAALTLSGAQPEDEAEYYCALWYSNLWVFGGGTKLTVLG
For the molecule B7, the values for the Absorbance (450 nm) in experiment [1] and in experiment [2] were 0.113 and 0.125, respectively.

B8: H05 (antibody, human IgG1, lambda, L234A L235A, V domains shown)
VH: EVQLVESGGGLVQPGGSLKLSCAASGFTFNTYAMNWVRQASGKGLEWVARIRSKYNNYATYYADSVKDRFTISRDDSQSTLYLQMNSLKTEDTAVYYCVRHGNFGNSYVSWFAYWGQGTLVTVSS
VL: QAVVTQEPSLTVSPGGTVTLTCRSSTGAVTTSNYANWFQQKPGQAPRGLIYGTNKRAPWTPARFSGSLLGGKAALTLSGAQPEDEAEYYCALWYSNLWVFGGGTKLTVLG
As to B8, the Absorbance (450 nm) in experiment [1] was determined as 0.061; in experiment [2], 0.078.

B9: H04 (antibody, human IgG1, lambda, L234A L235A, V domains shown)
VH: EVQLVESGGGLVQPGGSLKLSCAASGFTFNTYAMNWVRQASGKGLEWVARIRSKYNNYATYYADSVKDRFTISRDDSQSTLYLQMNSLKTEDTAVYYCVRHGNFGNSYVSWFAYWGQGTLVTVSS
VL: QAVVTQEPSLTVSPGGTVTLTCRSSTGAVTTSNYANWFQQKPGQAPRTLIGGTNKRAPWTPARFSGSLLGDKAALTLSGAQPEDEAEYYCALWYSNLWVFGGGTKLTVLG
Consider B9, for which the Absorbance (450 nm) came to 0.068 in experiment [1] and 0.077 in experiment [2].

B10: H12 (antibody, human IgG1, lambda, L234A L235A, V domains shown)
VH: EVQLVESGGGLVQPGGSLKLSCAASGFTFNTYAMNWVRQASGKGLEWVARIRSKYNNYATYYADSVKDRFTISRDDSQSTLYLQMNSLKTEDTAVYYCVRHGNFGNSYVSWFAYWGQGTLVTVSS
VL: QAVVTQEPSLTVSPGGTVTLTCRSSTGAVTTSNYANWVQQKPGQAPRTLIGGTNKRAPWTPARFSGSLLGDKAALTLSGAQPEDEAEYYCALWYSNLWVFGGGTKLTVLG
Regarding B10, the figures for the Absorbance (450 nm) in experiment [1] and in experiment [2] were 0.083 and 0.099, respectively.

B11: H14 (antibody, human IgG1, lambda, L234A L235A, V domains shown)
VH: EVQLVESGGGLVQPGGSLKLSCAASGFTFNTYAMNWVRQASGKGLEWVARIRSKYNNYATYYADSVKDRFTISRDDSQSTLYLQMNSLKTEDTAVYYCVRHGNFGNSYVSWFAYWGQGTLVTVSS
VL: QAVVTQEPSLTVSPGGTVTLTCRSSTGAVTTSNYANWVQQKPGQAPRGLIYGTNKRAPWTPARFSGSLLGDKAALTLSGAQPEDEAEYYCALWYSNLWVFGGGTKLTVLG
For the molecule B11, the Absorbance (450 nm) in experiment [1] was found to be 0.094; in experiment [2], 0.096.

B12: H10 (antibody, human IgG1, lambda, L234A L235A, V domains shown)
VH: EVQLVESGGGLVQPGGSLKLSCAASGFTFNTYAMNWVRQASGKGLEWVARIRSKYNNYATYYADSVKDRFTISRDDSQSTLYLQMNSLKTEDTAVYYCVRHGNFGNSYVSWFAYWGQGTLVTVSS
VL: QAVVTQEPSLTVSPGGTVTLTCRSSTGAVTTSNYANWVQQKPGQAPRTLIYGTNKRAPWTPARFSGSLLGDKAALTLSGAQPEDEAEYYCALWYSNLWVFGGGTKLTVLG
Turning to B12, the Absorbance (450 nm) in experiment [1] came out at 0.077; in experiment [2] it was 0.088.

B13: H11 (antibody, human IgG1, lambda, L234A L235A, V domains shown)
VH: EVQLVESGGGLVQPGGSLKLSCAASGFTFNTYAMNWVRQASGKGLEWVARIRSKYNNYATYYADSVKDRFTISRDDSQSTLYLQMNSLKTEDTAVYYCVRHGNFGNSYVSWFAYWGQGTLVTVSS
VL: QAVVTQEPSLTVSPGGTVTLTCRSSTGAVTTSNYANWVQQKPGQAPRTLIGGTNKRAPWTPARFSGSLLGGKAALTLSGAQPEDEAEYYCALWYSNLWVFGGGTKLTVLG
In the case of B13, the Absorbance (450 nm) worked out at 0.142 in experiment [1] and 0.122 in experiment [2].

B14: H03 (antibody, human IgG1, lambda, L234A L235A, V domains shown)
VH: EVQLVESGGGLVQPGGSLKLSCAASGFTFNTYAMNWVRQASGKGLEWVARIRSKYNNYATYYADSVKDRFTISRDDSQSTLYLQMNSLKTEDTAVYYCVRHGNFGNSYVSWFAYWGQGTLVTVSS
VL: QAVVTQEPSLTVSPGGTVTLTCRSSTGAVTTSNYANWFQQKPGQAPRTLIGGTNKRAPWTPARFSGSLLGGKAALTLSGAQPEDEAEYYCALWYSNLWVFGGGTKLTVLG
As for B14, the Absorbance (450 nm) in experiment [1] worked out at 0.085; in experiment [2] it was 0.113.

B15: A02 (antibody, human IgG1, lambda, L234A L235A, V domains shown)
VH: EVQLVESGGGLVQPGGSLKLSCAASGFTFNTYAMNWVRQASGKGLEWVGRIRSKYNNYATYYADSVKDRFTISRDDSKNTAYLQMNSLKTEDTAVYYCVRHGNFGNSYVSWFAYWGQGTLVTVSS
VL: QAVVTQEPSLTVSPGGTVTLTCRSSTGAVTTSNYANWFQQKPGQAPRTLIYGTNKRAPWTPARFSGSLLGDKAALTLSGAQPEDEAEYYCALWYSNLWVFGGGTKLTVLG
Take B15: the Absorbance (450 nm) turned out to be 0.068 in experiment [1] and 0.098 in experiment [2].

B16: A12 (antibody, human IgG1, lambda, L234A L235A, V domains shown)
VH: EVQLVESGGGLVQPGGSLKLSCAASGFTFNTYAMNWVRQASGKGLEWVGRIRSKYNNYATYYADSVKDRFTISRDDSKNTAYLQMNSLKTEDTAVYYCVRHGNFGNSYVSWFAYWGQGTLVTVSS
VL: QAVVTQEPSLTVSPGGTVTLTCRSSTGAVTTSNYANWVQQKPGQAPRTLIGGTNKRAPWTPARFSGSLLGDKAALTLSGAQPEDEAEYYCALWYSNLWVFGGGTKLTVLG
Turning to B16, the Absorbance (450 nm) was determined as 0.068 in experiment [1] and 0.097 in experiment [2].

B17: H09 (antibody, human IgG1, lambda, L234A L235A, V domains shown)
VH: EVQLVESGGGLVQPGGSLKLSCAASGFTFNTYAMNWVRQASGKGLEWVARIRSKYNNYATYYADSVKDRFTISRDDSQSTLYLQMNSLKTEDTAVYYCVRHGNFGNSYVSWFAYWGQGTLVTVSS
VL: QAVVTQEPSLTVSPGGTVTLTCRSSTGAVTTSNYANWVQQKPGQAPRTLIYGTNKRAPWTPARFSGSLLGGKAALTLSGAQPEDEAEYYCALWYSNLWVFGGGTKLTVLG
In the case of B17, the Absorbance (450 nm) stood at 0.113 in experiment [1] and 0.141 in experiment [2].

B18: H06 (antibody, human IgG1, lambda, L234A L235A, V domains shown)
VH: EVQLVESGGGLVQPGGSLKLSCAASGFTFNTYAMNWVRQASGKGLEWVARIRSKYNNYATYYADSVKDRFTISRDDSQSTLYLQMNSLKTEDTAVYYCVRHGNFGNSYVSWFAYWGQGTLVTVSS
VL: QAVVTQEPSLTVSPGGTVTLTCRSSTGAVTTSNYANWFQQKPGQAPRGLIYGTNKRAPWTPARFSGSLLGDKAALTLSGAQPEDEAEYYCALWYSNLWVFGGGTKLTVLG
For B18, the Absorbance (450 nm) in experiment [1] is 0.101; in experiment [2] it was 0.134.

B19: A13 (antibody, human IgG1, lambda, L234A L235A, V domains shown)
VH: EVQLVESGGGLVQPGGSLKLSCAASGFTFNTYAMNWVRQASGKGLEWVGRIRSKYNNYATYYADSVKDRFTISRDDSKNTAYLQMNSLKTEDTAVYYCVRHGNFGNSYVSWFAYWGQGTLVTVSS
VL: QAVVTQEPSLTVSPGGTVTLTCRSSTGAVTTSNYANWVQQKPGQAPRGLIYGTNKRAPWTPARFSGSLLGGKAALTLSGAQPEDEAEYYCALWYSNLWVFGGGTKLTVLG
As for B19, the Absorbance (450 nm) was found to be 0.154 in experiment [1] and 0.172 in experiment [2].

(Values after patent publication US20200317779A1.)
